Laboratory results from the supplement of paper PMC9170038.

How the values were obtained:
MS2 coat protein [1] = experiment: apparent KD of MS2 coat protein, switch OFF state (with FMN for OFF switches, without FMN for ON switches); designed switch direction (-1 OFF switch, 1 ON switch): 1; higher = weaker reporter binding; conditions: FMN input: 0 or 200 uM; Eterna round: R93 (includes R88 designs)
In short: (§1)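 Designed RNA switches were transcribed on-chip from Illumina sequencing clusters and titrated with SNAP-549-labelled MS2 coat protein in twofold steps from 0.7 or 1.5 nM up to 3 µM. Each step lasted 0.8–1.5 h at first and 10–20 min by the end, in 100 mM Tris-HCl pH 7.5, 80 mM KCl and 4 mM MgCl2, without or with constant ligand. Apparent KD is the median, for each design, of fits to normalised cluster binding curves.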

MS2 coat protein [2] = experiment: apparent KD of MS2 coat protein, switch ON state; designed switch direction (-1 OFF switch, 1 ON switch): 1; higher = weaker reporter binding; conditions: FMN input: 0 or 200 uM; Eterna round: R93 (includes R88 designs)
In short: as §1

Sequence	apparent KD of MS2 coat protein (MS2 coat protein [1])	apparent KD of MS2 coat protein (MS2 coat protein [2])
AAAAGAGCGACACAGGAUAUGUUGACUCUAACAUGAGGAUCACCCAUGUGCAUUUAGGGUCGUGCGCAGAAGGGUGUAGCUCGGA [Laesbibiti]	0.0247 µM	0.0117 µM
AAAAUAAAAUAAAAGGAUAUAAAAUAAAAAACAUGAGGAUCACCCAUGUGAAAACAUGAAAAAAAAAAGAAGGAAAAAUAAAAAA [SS2: 76 No MS2]	0.0316 µM	0.0213 µM
AAAGAAGAAAGACAGGAUAUGGAUGGGUAAACAUGAGGAUCACCCAUGUAUAAGAAAGAAAGAAACCAGAAGGGUCAAAAGAAAA [Darius III]	0.551 µM	0.0427 µM
AAAUAAAUGACUAAGGAUAUAUCGAAGAAAACAUGAGGAUCACCCAUGUGAUAAUAAAAAGGGUGGUAGAAGGUAGUCAACAAAC [Mod 4 of Pariah 4 by Hyphema in Round 1]	0.088 µM	0.0502 µM
AAAUAACAUGAGGAUCACCCAUGUGGGCUUAAGCAAGGAUAUGGGCACUCAAAAGUAGCGCCAGAAGGUGCAGUCG [Anrabitien]	0.145 µM	0.0561 µM
AAAUAACAUGAGGAUCACCCAUGUUGCAACGGUACAGGAUAUGUGGGUGAAAAUAGCAUGACAGAAGGGUAGUGUA [SameState1 Malc#30]	0.15 µM	0.207 µM
AAAUAGUGCAUUAAGGAUAUGUCGCAUGACACAUGAGGAUCACCCAUGUGGUAACACAGAGGGUGGCAGAAGGUAGUGUGCAAAC [Mod 3 of Pariah 6 (Round1) by Hyphema]	0.0151 µM	0.108 µM
AACAAACAUGAGGAUCACCCAUGUCAAACAAACCAAGGAUAUGGGAAGCGAGACUCGCUACCAGAAGGUGGAAAUU [Edtigebe]	0.176 µM	0.0438 µM
AACAAUCUAUCUGAGGAUAUCAUGAAAAAAACAUGAGGAUCACCCAUGUGCAGGAAAACUGCAUAUGAGAAGGCAGAUAGAUUGA [SS2: 1101]	0.913 µM	0.0216 µM
AACAAUCUAUCUGAGGAUAUCAUGUCAAAGACAUGAGGAUCACCCAUGUCUAGGAAAACUAGAUAUGAGAAGGCAGAUAGAUUGA [SS2 :P - 597]	0.126 µM	0.0232 µM
AACAAUCUAUCUGAGGAUAUGUGUCGAAAGACAUGAGGAUCACCCAUGUGAAAACAUGGGAAAACACAGAAGGCAGAUAGAUUGA [SS2: 1152]	0.0332 µM	0.0549 µM
AACUAACAUGAGGAUCACCCAUGUUACAGCAGUUGAGGAUAUGUGGGUGAAAAUAGCAUGGCAGAAGGCGAGUGUA [SameState1 Malc#24]	0.127 µM	0.0539 µM
AAGAAACAUGAGGAUCACCCAUGUAAUAAUAUGGGAGGAUAUACAAGGACGUAAGUCAAGGUAGAAGGCCUAAGAA [Mat - Same State 1 - Meechl mod - D141]	0.137 µM	0.021 µM
AAGAAACAUGAGGAUCACCCAUGUAGAAAUAUGGGAGGAUAUACAAAGACGAAAGUCAAAGUAGAAGGCCUAAGAA [Mat - Same State 1 - Meechl mod - D129]	0.0632 µM	0.0166 µM
AAGAAAGUUUACGAGGAUAUGUUCCGCAGUACAUGAGGAUCACCCAUGUGAACACGAAGGGCGACGCAGAAGGCGUGAGCAAUGA [Orononed]	0.0892 µM	0.0309 µM
AAUAAAAAUAGUCAGGAUAUGAGAACUAAGACAUGAGGAUCACCCAUGUAAACAGAACAAGUAAAUCAGAAGGGACAGGGUGAAA [JR_SS002_Sub201]	0.0302 µM	0.0393 µM
AAUAACAAAAGAAAGGAUAUGCGCACAGGAACAUGAGGAUCACCCAUGUGGCCCGAAAGGGCAUAGCAGAAGGUUCACACGCAUA [Default title]	0.042 µM	0.0327 µM
AAUACACAUGAGGAUCACCCAUGUAGAAACAAGUCAGGAUAUCCGAUCCACAUGUGAUAAGGAGAAGGGACAAUAA [SS 1 Tesla 7]	0.163 µM	0.0255 µM
AAUACACAUGGUCAGGAUAUCGCAGCUAGGACAUGAGGAUCACCCAUGUCGUACGUAACCGUAAAUGAGAAGGGACAGGGUGACC [JR_SS002_Sub408]	0.0541 µM	0.145 µM
AAUAUAUUAAGCGAGGAUAUCGAGGAAAAAACAUGAGGAUCACCCAUGUGGGUAAAAAAAAAAAGUGAGAAGGUGCUUAAUAUAU [Samwise Clockwise 9 - Jieux - Same State 2]	0.0747 µM	0.0318 µM
AAUAUAUUAAGUGAGGAUAUCGAGAAAAAAACAUGAGGAUCACCCAUGUGGGAAACAUGGUAGGGUGAGAAGGUACUUAAUAUAU [Samwise Clockwise 22 - Jieux - Same State 2]	0.399 µM	0.27 µM

Sequence	apparent KD of MS2 coat protein (MS2 coat protein [1])	apparent KD of MS2 coat protein (MS2 coat protein [2])
ACAAUACAUGAGGAUCACCCAUGUUAGCUGGGCGAAGGAUAUGUAGAUGGAUAAAAAUAUGCAGAAGGUCGAUAAC [JR_SS001_Sub209]	0.109 µM	0.0687 µM
ACCCGAAAGACGUAGGAUAUGUGGUCACCGACAUGAGGAUCACCCAUGUAUGCGGGAGAAUGGGUGCAGAAGGACGCUGUUCGGU [Antilera]	0.192 µM	0.0219 µM
AGAAAACAUGAGGAUCACCCAUGUGACAAUAUGGGAGGAUAUACGAAGACGAAAGUCGAAGUAGAAGGCCUAAAGA [Garnet 50]	0.0667 µM	0.0234 µM
AGAAAACAUGAGGAUCACCCAUGUGAUAACAUGGGAGGAUAUACGAGGACGAUAGUCAAGGUAGAAGGCCUAAAGA [Garnet 71]	0.0321 µM	0.0973 µM
AGAAAUAAAAAUGAGGAUAUGCAAAAGAAAACAUGAGGAUCACCCAUGUAAAAGAAAAUAAAUGGGCAGAAGGCAUGAAAUAAAGA [Helter Skelter 3]	0.0751 µM	0.0338 µM
AGAAAUAAAACACAGGAUAUCCAAAAGAAAACAUGAGGAUCACCCAUGUAAAAUAAAAUAAAAUGGGAGAAGGGUGAAAAUAAGA [Mat - Same State 2 - JL mod - D5]	0.0502 µM	0.15 µM
AGAAAUAAAAGGCAGGAUAUCCAAAAAAAAACAUGAGGAUCACCCAUGUAAAAAAAAAAAAAAUGGGAGAAGGGCCAAAUAAAGA [Mat - Same State 2 - Eli mod - D88]	0.0375 µM	0.016 µM
AGAAGACAUGAGGAUCACCCAUGUGGGAAUAUGGGAGGAUAUACAAAGACGAGAGUCAGAGUAGAAGGCCUAGGAG [salish99-SS1-093]	0.15 µM	0.0633 µM
AGGAAACAUGAGGAUCACCCAUGUAAAAAAUAUGGAGGAUAUACUAGAAGAAACAAAAUAGUAGAAGGCCAAAAAA [75%, Ex sub1, 31]	0.0194 µM	0.0152 µM
AGGAAACAUGAGGAUCACCCAUGUAAGAUAUACACAGGAUAUGCGAAAAGAAACAAAGAAGCAGAAGGGUGGAAAA [75%, Ex sub1, 11]	0.0316 µM	0.0165 µM
AGGAGACAUGAGGAUCACCCAUGUGAGAAGAGGCGAGGAUAUCGAAAGAAAGAAGAGAAACGAGAAGGCGCGAGGA [salish99-SS1-019]	0.0585 µM	0.0298 µM
AUAAAACAUGAGGAUCACCCAUGUAAAAAAGCAUGAGGAUAUAUAAAAAGAAAAAGAAGAAUAGAAGGCAUAGUAA [JR_SS001_Sub1222]	0.0521 µM	0.0714 µM
AUAAAACAUGAGGAUCACCCAUGUAGAAAUAUGGGAGGAUAUACAAAGACGAAAGUCGAGGUAGAAGGCCUAAAAG [Mat - Same State 1 - Meechl mod - D121]	0.0979 µM	0.0213 µM
AUAAAACAUGAGGAUCACCCAUGUAGAAAUAUGGGAGGAUAUACGAAGACGAAAGUCAAAGUAGAAGGCCUAAAAG [Mat - Same State 1 - Meechl mod - D115]	0.0836 µM	0.0265 µM
AUAAAAUAAAAGGAGGAUAUCCUAAAUAAAACAUGAGGAUCACCCAUGUAAAAAAUAAUAAAAUGGGAGAAGGCCUAAAAUAAAU [SS2 M 25]	0.035 µM	0.0169 µM
AUAAAAUAAAUUGAGGAUAUCUAUAAUAAAACAUGAGGAUCACCCAUGUUUAAACAAAGAUCAUGGGAGAAGGCAGAAAAUAAAU [SS2 M 37]	0.0206 µM	0.0125 µM
AUAACAACGUAUGAGGAUAUCCAUAAUAAAACAUGAGGAUCACCCAUGUGAAUAAAAUAACAAUGGGAGAAGGCAUACGUACAAU [SS 2 M 51]	0.016 µM	0.0121 µM
AUAAGACAUGAGGAUCACCCAUGUAUAAGAGCAUGAGGAUAUAUAAAAAGAAAAAGGAGAAUAGAAGGCAUAGUUG [JR_SS001_Sub1221]	0.107 µM	0.0841 µM
AUAAUAAACUGUGAGGAUAUCCAUAAUAAAACAUGAGGAUCACCCAUGUGUAGAUAAUAAUAAUGGGAGAAGGCACAUAAUAAUA [Mat - Same state - Mayanna Mod - D102]	0.0262 µM	0.0196 µM
AUAUAAAUAAGGUAGGAUAUACUAAAGUAAACAUGAGGAUCACCCAUGUGAAGAAAGAAACUCAUGUAGAAGGACCAUAUAUAUA [viburnum 2]	0.248 µM	0.0272 µM
AUAUAUAUAAGGUAGGAUAUACUAAAGUAAACAUGAGGAUCACCCAUGUAAAGAAAGAAACUCAUGUAGAAGGACCAUAUAUAUA [Original: 77%, More Tesla, 1]	0.0999 µM	0.0213 µM
